According to the nanobody polyreactivity screen of Harvey et al. (2022):

Assay: yeast display, Sf9 membrane polyspecificity reagent, FACS + sequencing; frameworks hold sequencing errors
Summary of the method: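 A nanobody's polyreactivity label depends on the gate it was sorted from. Yeast display cells were stained with 10% biotinylated, detergent-solubilized Sf9 membrane reagent for 1 hour at 4 °C, enriched on streptavidin microbeads and sorted by FACS. The low and high (top ~1%) gates were set on anti-HA fluorescence for expression and streptavidin fluorescence for reagent binding.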

Sequence	polyreactivity (PSR sort gate)
QVQLVESGGGLVQAGGSLRLSCAASGRIFLLNAMGWYRQAPGKERELVARISSGRTYYADSVKGRFTISRDNAKNTVYLQMNSLKPEDTAVYYCNATVSSSKYRYFYVNPYDYWGQGTQVTVSS	low polyreactivity
QVQLVESGVRVVQAGGSLRLRCAASGFTFRDYTMGWYRQAPGKERELVAAISRSGGSTYYADSVKGRFTISRDNAKNTVDLQMNSLKPEDTAVYYCAALWHAVSYADYDYWGQGTQVTVSS	high polyreactivity
QVQLVESGGGLVQAGGSLRISCDASGSTFYPYAMGWYRQAPGKERELVAAISSGGSTSYADSVKGRFTISRDNAKNTVYLQMNSLKPEDTAVYYCNASSPGAVPVYDYDYWGQGTQVTVSS	low polyreactivity
QVQLVESGGGLVQAGGSLRLSCAASGSTFETNAMGWYRQAPGKERELVAAIRWSTGNTYYADSVKGRFTISRDNAKNTVYLQMNSLKPEDTAVYDCAAYKGKHDKEGYWGQGTQVTVSS	low polyreactivity
QVQLVESGGGLVQAGRSLRLSCAASGFIFSGNVMGWYRQAPGKERELVAAITSSGGSTYYADSVKGRFTISRDNAKNTVYLQMNSLKPEDTAVYYCATRYGGRYYWGQGTQVTVSS	high polyreactivity
QVQLVESGGGFVEAGGSLRLSCAASGSIFRSYAMGWYRQAPGKERELVAAISSGDSTNYADTVKRRFTISRDNAQNTGYLQMNSLKPEDTADYYCAADQVQYTGYTEYDWGQGTQVTVSS	low polyreactivity
QVQLVESGGGLVQAGGSLRLSCAASGFTFKSYAMGWYRQAPGKERELVAAINRSGGSTYYADSVKGRFTISRDNAKNTVYLQMNSLKPEDTAVYYCAAVKPPDYYYWGQGTQVTVSS	high polyreactivity
QVQLVESGGGLVQAGGSLRLSCAASGLTFNVNPIVWYRQAPGKEREMVARITTSGGSTSYADSVKGRFTISRDNAKNTVYLQMNSLKPEDSAVYYCAADRARYYSEYDYWGQGTQVTVSS	low polyreactivity
QVQRVESGGGLVQAGGSLRLSCAASGRILGKYAMGRYIQAPGKEREVVAAIRLRGGSTYYADSVKGRFTISRDNAKNTVYLQMNSLKPEDTAVYYCAATYWDRSQAYNYWGQGTQVTVSY	high polyreactivity
QVQLVESGGGLVQAGGSLRLSCAASGSIFKGNAMGWYRQAPRKERELVATITSSGDSTNYADSVKGRFTISRDNAKNTVYLQMNSLKPEDTAVYYCATEPFRYSLAGGYWGQGTQVTVSS	low polyreactivity
QVQLEESGGGLVQAGGSLRLSCAASGLNIAVYTMGWYRQAPGKERELVAAITRRSTRTYYADSVKGRFTISRDNALISVFLQMNSLKPEDTAVYYCAADRVSSGAAFEFWGQGTQVTVSS	low polyreactivity
QVHLVESGGGLVQAGGRLRLSCAASGSIFRLYAMGWYRQAPGKERELVARITTGGSTNYADSVKGRFTISLDNAKNTVYFQMNSLKPEDTAVYYCNGGVLVTAQMGWQKYSYWGQGSQVTVSS	high polyreactivity
QVQLVESGGGLVQAGGSLRLSCAASGSTFYYYAMGWYRQAPGKERELVAAITKSGGSTYYADSVKGRFTISGDNAKNTVYLQMNTLKPEDTAVYYCAAYLRSGYKFDYWGQGTQVTVSS	low polyreactivity
QVQLVESGGGLVQAGGILRFSCAASGRTFKYYAMGWYRQAPGKERELVAAISYNGGSTFYADSVKGRFTISRDNAKNTVYLQLNSLKPEDTAVYYCAAGPRGTGKYYWGQGTQVTVSS	high polyreactivity
QVQLVESGGGLVQAGGSLRLSCAASGSIFGQYTMGWYRQAPGKERELVAVISTRGGSTYYADSVKGRFTISRDNAKNTVYLQMNSLKPEDTAVYYCAASAFRGREMDYWGQGTQVTVSS	low polyreactivity
QVQLVESGGGLVQAGGSLRLSCAASGFTFRVYAMGWYRHAPGKERELVAAITKRGGSTYYADSVKGRFTISRDNAKNTVYLQMNSLKPEDTAVYYCAAVNVRHFSYWGQGTQVTVSS	high polyreactivity
QVQLVESGGGLVQAGGSLRLSCAASGFTFFYYVMGWYRQAPGKERELVAAISSGGSTYYADSVKGRFTISRDNAKNTVYLQMNSLKPEDTAVYYCNAVYRSTWWGYDYWGQGTQVTVSS	high polyreactivity
QVQLVESGGGLFQAGGSLRLSCAASGRIFIVITMGWYRQAPGKERELVATIDSDGDTNYADSVKGRFTISRDNAKNTVYLQMNSLKPEDTAVYYCAAYYTHTLAALKGGRMDYWGQGTQVTVSS	low polyreactivity
QVQLVESGGGLVQAGGSLRLSCAASGLIFEPYVMGWYRQAPGKERELVASITWSAGSTYYADSVKGRFTISRDNAKNTVYLQMNSLKPDDTAVYYCAARHGYGWGFSGVPAQGYEYWGQGTQVTVSS	low polyreactivity
QVQLVESGGGLVQAGGSLRLSCAASGRTFRSNAMGWYRQAPGKERELVAAIRNSDGSTNYADSVKGRFTISRDNAKNNVYLQMNSLKPEDTAVYYCAASSTVGGITRILYYYWGQGTQVTVSS	high polyreactivity
QVQLVESGGGLVQAGGSLRLSCAASGRIFYRYAMGWYRQAPGKEMELVASITRSGITHYADSVKGRFTISRDNAKNTVYLQKNSLKPEDTEVYYCNARRGSPAPYDYWGQGTQVTVSS	high polyreactivity
QVQLVESGGGLVQAGGSLRLSCAASGSTFGGYVMGWYRQAPGKERELVAAISGNGASTTYADSVKGRFTISRDNAKNTVYLQMNSLKPEDTAVYYCDALYRKAHSDYDYWGQGTQVTVSS	low polyreactivity

Sequence	polyreactivity (PSR sort gate)
QDQLVESCGGLVPAGGSLRLSCPASGPIFTYYTMGSYRQAPGKERELVAAITVRGGRTYYADSVKGRFTISRDNEKNTVYLQMNSLKPEDTAVYYCAARGLVRSYDYWGQGTQVSVSS	high polyreactivity
QVQLVESGGGLVQAGGSLRLSCAASGFIFSSNAMGGYRQAPGKERELDATISFSGDSTYYADSVKGRFTISRDNEKNTVYLQMNSLKPEDTAVYYCARSTYYRWYKYGYYDYNYWGQGTQVTVSS	low polyreactivity
QVQLVESGGGLVQAGGSLRLSCAASGRTISHNVMGWYIKAPGKERELVAAISRNGGRTYYADSVKGRFTISRDNAKNTVYLQMNSLKPEDTAVYYCAKRRSYFLHSYYSYGYWGQGTQVTVSS	high polyreactivity
QVQLVESGGGLVQAGGSLRLSCAASGRIFKRSVMGWYRQAPGKERELVAAITGRGGSTYYADSVKGRFTISRDNAKNTVYLQMNSLKPEDTAVYYCNAKDAEHYERFNYWGQGTQVTVSS	low polyreactivity
QVQLVESGGGLVQAGGSLRLSCAASGLIFKIYAMGWYRQAPGKERELVASISSNGGTYYADSVKGRFTISRDNAKKTVYLQMNSLKPEDTAVYYCNAKRVARYQYGASYNYWGQGTQVTVSS	high polyreactivity
QVQLVDSAGCLVQAGGTLRLSGSASGSIFDAYAMGWYRQAPGKERELVASITSGGRTTYADSVKGRFTISRDNALNTVYLQMNSLKPEDTAVYYCAALRPGPRDDYWGQGSQVTVSS	high polyreactivity
QVQLGESGGGLVQAGGSLRLSCAASGSIFTGNAMGWYRQAPGKERELVAAITNGGITNYADSVKRRFTISRDNAKNTFYLQMNSLKPEDTAVYYCAADYVDFYSFRRFDYWGQGSQVTVSS	low polyreactivity
QVQLVESGGGLVQAGGSLRLSCAASGSTSVGNAMGWYRQAPGKERELVAAMSRIGGTTYYADSVKGRFTISRDNAKNTVYLQMNSLKPEDTAVYYCNVLKRYWSGRVDYWGQGTQVTVSS	high polyreactivity
QVQIVESGGGLVQAGGTLRLSCAASGLTFAYYDMGWYSQAPGKERELVAAITSVGTTNYADSVKGRFSISRDNSKNTVYLKMNSLKPEDTAVYYCNADYFSRIVGDRIYDYCGQGTQVTVSS	low polyreactivity
QVQLVESGGGLVQAGGSLRLSCAASGRICTRYMGWYRQAPGKERELVATINWSGGSTYYADSVKGRFTISRDNAKNTVYLQMNSLKPEDTAVYYGNARNVDFYYVQYNGAKIFDYWGQGTQVTVSS	low polyreactivity
QVQIVESGGGLVQAGGSLRLSCPASGRIFYNNAMGWYRPAPGKERELVAAINWSGGSTYYADSVKGRFTISRDNAKNTVYLQMNSLKPEDTAVYYCNADPHGYYGYGYDYWGQGTQVTVSS	low polyreactivity
QVQLVESGGGLVQAGGSLRLSCAAYGSIFYWYAMGWYRQAPGKERELVAAISSSNDSTDYADSVKGRFTISRDNAKNTVYLQMNSLKPEDTAVYYCAALYGTIQYDYWGQGTQVTVSS	low polyreactivity
QVQLVESGGGLVQAGGSLRLSCAASGGIFGKYVMGWYRQAPGKERELVAGISRSAGITYYADSVKGRFTISRDNAKHTVYLQMNSLIPEDTAVYYCNARAWSYPSYHVGYDYWGQGTQVTVSS	high polyreactivity
QVQLVDSGGGLVQAGGSLRLSCAASVFTFYCNAMGWYRQAPGKERELVAAITSTGNTYYADSVKGRFTISRDNAKNTVYLQMNSLKPEDTAVYYCARRGDILYDYWGQGTQVTVSS	low polyreactivity
QVQLVESGGGLVQAGGSLRLSCAASGLTFSRYAMGWYRQAPGTERELVAVISRSGGSTYYADSVKGRFTISRDNAKNTVYLQMNSLIPEDTAVYYCAVRAYIKMDYWGQGTQVTVSS	high polyreactivity
QVQLVESAGGLVQAAGSLRLSCAASGFVFYSYAMGWYRQAPGKERELVAVISRSGGSTYYADSVKGRFTISRDNAKNTVYFQMNSLKPEDTAVYYCAAKYHGQERGAPPFYYWGQGTQVTVSS	high polyreactivity
QVQLVESGGGLVQAGGSLRLSCAASGFTFYRNAMGWYRQAPGKERELVAGISKRGGSTYYADSVKGRFTISRDNAKNTVYLQMNSLKPEDTAVYYCARGGYPGSAEYDYWGQGTQVTVSS	high polyreactivity
QVQLLESGGGLVQPGGSLRLSCAASGSTFDSYVKGWYRKAPGKERELVAANSSDDSTYYADSVKGRFTISRDNAKNTVYLQMISLKPEDTAVYYCAATNFRDYYCSWNYYYWGQGTQVTVSS	low polyreactivity
QVQLVESGGGLVQAGGSLRLSCAASGSTFSSYVMGWYRQAPGKERELVAAISSIGGSTYYADSVKGRFTISRDNAKNTVYLQMNSLKPEDTAVYYCNADYVIYFGLYEYWGQGTQVTVSS	low polyreactivity
QVQLVESGGGLVQAGGSLRLSCAASGFTFSFYAMGWYRQAPGKERELVAAITSRGTSTYYADSVKGRFTISRDNAKNTVYLQMNSLKPEDTEVYYCAKLLPRGQWPYDYWGQGTQVTVSS	high polyreactivity
QVQLVESGGGLVQAGGSLRLSCAASGSTFVSNAMGWYRQAPGKERELVASISQSGGGTDYADSVKGRFTISRDNAKNTVYLQMNSLKPEDTAVYYCAADRVPVQAPYDYWGQGTQVTVSS	high polyreactivity
